Experimental findings from patent US20120225828A1 (PALATIN TECHNOLOGIES, published 2012) are described below.

Bridge positions count the residues as written; N and C are the ends. Square brackets hold non-standard residues; d marks the D form. dPhe(3-Cl) = N[C@H](Cc1cccc(Cl)c1)C(=O)O; dPhe(4-Cl) = N[C@H](Cc1ccc(Cl)cc1)C(=O)O; dPhe(2-Cl) = N[C@H](Cc1ccccc1Cl)C(=O)O; dPhe(2-F) = N[C@H](Cc1ccccc1F)C(=O)O; Cit = NC(=O)NCCC[C@H](N)C(=O)O; Nle = CCCC[C@H](N)C(=O)O; Orn = NCCC[C@H](N)C(=O)O; Dab = NCC[C@H](N)C(=O)O

First the molecules themselves.
B1: Ac-Nle-cyclo(Glu-Orn-D-Phe(2-Cl)-Arg-Dab)-NH2 (peptide)
peptide: Ac-[Nle]E[Orn][dPhe(2-Cl)]R[Dab]-NH2
modifications: lactam 2-6
SMILES: CCCC[C@H](NC(C)=O)C(=O)N[C@H]1CCC(=O)NCC[C@@H](C(N)=O)NC(=O)[C@H](CCCNC(=N)N)NC(=O)[C@@H](Cc2ccccc2Cl)NC(=O)[C@H](CCCN)NC1=O
B2: Ac-Nle-cyclo(Glu-Orn-D-Phe(4-Cl)-Arg-Dab)-NH2 (peptide)
peptide: Ac-[Nle]E[Orn][dPhe(4-Cl)]R[Dab]-NH2
modifications: lactam 2-6
SMILES: CCCC[C@H](NC(C)=O)C(=O)N[C@H]1CCC(=O)NCC[C@@H](C(N)=O)NC(=O)[C@H](CCCNC(=N)N)NC(=O)[C@@H](Cc2ccc(Cl)cc2)NC(=O)[C@H](CCCN)NC1=O
B3: Ac-Nle-cyclo(Glu-His-D-Phe-Arg-Dab)-Lys-NH2 (SEQ ID NO: 55) (peptide)
peptide: Ac-[Nle]EH[dF]R[Dab]K-NH2
modifications: lactam 2-6
SMILES: CCCC[C@H](NC(C)=O)C(=O)N[C@H]1CCC(=O)NCC[C@@H](C(=O)N[C@@H](CCCCN)C(N)=O)NC(=O)[C@H](CCCNC(=N)N)NC(=O)[C@@H](Cc2ccccc2)NC(=O)[C@H](Cc2c[nH]cn2)NC1=O
B4: Ac-Nle-cyclo(Glu-Orn-D-Phe-Arg-Dab)-NH2 (peptide)
peptide: Ac-[Nle]E[Orn][dF]R[Dab]-NH2
modifications: lactam 2-6
SMILES: CCCC[C@H](NC(C)=O)C(=O)N[C@H]1CCC(=O)NCC[C@@H](C(N)=O)NC(=O)[C@H](CCCNC(=N)N)NC(=O)[C@@H](Cc2ccccc2)NC(=O)[C@H](CCCN)NC1=O
B5: Ac-Nle-cyclo(Glu-Orn-D-Phe(3-Cl)-Arg-Dab)-NH2 (peptide)
peptide: Ac-[Nle]E[Orn][dPhe(3-Cl)]R[Dab]-NH2
modifications: lactam 2-6
SMILES: CCCC[C@H](NC(C)=O)C(=O)N[C@H]1CCC(=O)NCC[C@@H](C(N)=O)NC(=O)[C@H](CCCNC(=N)N)NC(=O)[C@@H](Cc2cccc(Cl)c2)NC(=O)[C@H](CCCN)NC1=O
B6: Ac-Nle-cyclo(Glu-Orn-D-Phe(2-F)-Arg-Dab)-NH2 (peptide)
peptide: Ac-[Nle]E[Orn][dPhe(2-F)]R[Dab]-NH2
modifications: lactam 2-6
SMILES: CCCC[C@H](NC(C)=O)C(=O)N[C@H]1CCC(=O)NCC[C@@H](C(N)=O)NC(=O)[C@H](CCCNC(=N)N)NC(=O)[C@@H](Cc2ccccc2F)NC(=O)[C@H](CCCN)NC1=O

The target in the assay is human melanocortin-1 receptor hMCR-1 expressed by the human melanoma cell line HBL (human, UniProt Q01726 1-317). Nature of the assay: cell-based or functional assay.
human melanocortin-1 receptor hMCR-1 expressed by the human melanoma cell line HBL, sequence (Q01726 whole entry): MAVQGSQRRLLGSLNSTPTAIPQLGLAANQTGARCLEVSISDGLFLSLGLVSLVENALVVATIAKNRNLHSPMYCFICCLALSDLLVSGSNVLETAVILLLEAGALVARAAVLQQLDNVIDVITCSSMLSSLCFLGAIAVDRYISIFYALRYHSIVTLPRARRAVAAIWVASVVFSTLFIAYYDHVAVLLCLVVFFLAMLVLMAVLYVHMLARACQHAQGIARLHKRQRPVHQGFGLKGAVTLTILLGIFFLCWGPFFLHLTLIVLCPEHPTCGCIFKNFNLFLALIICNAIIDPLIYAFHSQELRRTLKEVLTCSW
Regarding Ac-[Nle]EK[dF]R[Dab]W-NH2 (lactam 2-6) [Ac-Nle-cyclo(Glu-Lys-D-Phe-Arg-Dab)-Trp-NH2 (SEQ ID NO: 56)], the “MC-1 Emax (average; cAMP HBL)” value amounted to 108%.
In the case of Ac-[Nle]E[Orn][dF]R[Dab]W-NH2 (lactam 2-6) [Ac-Nle-cyclo(Glu-Orn-D-Phe-Arg-Dab)-Trp-NH2 (SEQ ID NO: 58)], the “MC-1 Emax (average; cAMP HBL)” value was determined as 109%.
In the case of B1, the “MC-1 EC50 (average; cAMP HBL)” value is 1 nM and the “MC-1 Emax (average; cAMP HBL)” value amounted to 88%.
B2: the “MC-1 EC50 (average; cAMP HBL)” value worked out at 0.1 nM and the “MC-1 Emax (average; cAMP HBL)” value came out at 100%.
Ac-[Nle]EH[dF]R[Orn]W-NH2 (lactam 2-6) [Ac-Nle-cyclo(Glu-His-D-Phe-Arg-Orn)-Trp-NH2]: the “MC-1 Emax (average; cAMP HBL)” value came out at 91%.
On to B3, for which the “MC-1 EC50 (average; cAMP HBL)” value amounted to 0.175 nM and the “MC-1 Emax (average; cAMP HBL)” value amounted to 91%.
Consider B4, for which the “MC-1 EC50 (average; cAMP HBL)” value is 0.5 nM and the “MC-1 Emax (average; cAMP HBL)” value was found to be 102%.
Regarding Ac-[Nle]E[Dab][dF]R[Dab]W-NH2 (lactam 2-6) [Ac-Nle-cyclo(Glu-Dab-D-Phe-Arg-Dab)-Trp-NH2 (SEQ ID NO: 57)], the “MC-1 Emax (average; cAMP HBL)” value turned out to be 108%.
Consider B5, for which the “MC-1 EC50 (average; cAMP HBL)” value worked out at 2 nM and the “MC-1 Emax (average; cAMP HBL)” value was 86%.
For B6, the “MC-1 EC50 (average; cAMP HBL)” value turned out to be 0.8 nM and the “MC-1 Emax (average; cAMP HBL)” value was 95%.
Take Ac-[Nle]E[Cit][dF]R[Dab]W-NH2 (lactam 2-6) [Ac-Nle-cyclo(Glu-Cit-D-Phe-Arg-Dab)-Trp-NH2 (SEQ ID NO: 54)]: the “MC-1 Emax (average; cAMP HBL)” value is 97%.
